According to patent US20170342144A1 (Sanofi, published 2017):

T1: human TGFβ3 (human, UniProt P10600 301-412)
T1 sequence: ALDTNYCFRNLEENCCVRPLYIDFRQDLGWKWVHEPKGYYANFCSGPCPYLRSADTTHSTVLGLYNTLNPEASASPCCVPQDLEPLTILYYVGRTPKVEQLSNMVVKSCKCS

T2: human TGFβ2 (human, UniProt P61812 303-414)
T2 construct: also called TGFβ2 homodimer
T2 sequence: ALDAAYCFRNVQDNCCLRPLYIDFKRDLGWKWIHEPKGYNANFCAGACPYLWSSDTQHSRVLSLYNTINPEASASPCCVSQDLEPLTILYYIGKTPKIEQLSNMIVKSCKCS


Columns and labels:
[1] = molecular target: T1, human TGFβ3; assay: Biacore, immobilised TGFβ
[2] = molecular target: T3, human TGFβ1 (human, UniProt P01137 279-390); assay: Biacore, immobilised TGFβ
T3 construct: also called TGFβ1 homodimer
T3 sequence (P01137 279-390 limits assumed): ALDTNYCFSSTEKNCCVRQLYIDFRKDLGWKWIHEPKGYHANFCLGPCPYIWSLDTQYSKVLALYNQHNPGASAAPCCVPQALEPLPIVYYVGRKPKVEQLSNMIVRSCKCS

[3] = molecular target: T2, human TGFβ2; assay: Biacore, immobilised TGFβ
[4] = molecular target: T1, human TGFβ3; assay: Biacore off-rate vs wt GC1008, 50 nM
Outline: (§1)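 Surface plasmon resonance on a Biacore 3000 measured how fast purified antibody variants dissociated from TGFβ isoforms immobilized at about 100 RU. Variants carried single heavy- or light-chain substitutions and were produced by transient Expi293F transfection with Protein A cleanup. Samples at 50 nM were tested in duplicate, and each variant kd was divided by the wild-type control kd to give fold change.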

[5] = molecular target: T3, human TGFβ1; assay: Biacore off-rate vs wt GC1008, 50 nM
Outline: as §1

[6] = molecular target: T2, human TGFβ2; assay: Biacore off-rate vs wt GC1008, 50 nM
Outline: as §1

[7] = molecular target: T1, human TGFβ3; assay: Biacore, 3.33-90 nM, 1:1 global fit, vs wt GC1008
Description: (§2) In FIG. 6C, seventeen mutants were selected and scaled up to produce sufficient amount of purified protein for KD (equilibrium constant=kd/ka) analysis by Biacore. Multiple concentrations (90, 30, 10 and 3.33 nM) were used in duplicate on the 150 RU level TGFβ1, 2, and 3 immobilized surfaces. KD was calculated using global curve fitting analysis for a 1-to-1 Langmuir binding model. The experimental data from all four concentrations were used for calculation except for I54N and I54R mutants, where only the top 2 concentrations were used. The fold changes in KD were compared to the fold changes in kd (off rate) presented in FIG. 6B, and a heat map was generated for visualization. Similar fold changes were observed from the two data sets, confirming the validity of using kd as a parameter for screening of 155 single mutants as shown in FIG. 6B.

[8] = molecular target: T3, human TGFβ1; assay: Biacore, 3.33-90 nM, 1:1 global fit, vs wt GC1008
Description: as §2

[9] = molecular target: T2, human TGFβ2; assay: Biacore, 3.33-90 nM, 1:1 global fit, vs wt GC1008
Description: as §2

[10] = molecular target: T1, human TGFβ3; assay: Biacore off-rate vs wt GC1008
Description: (§3) Plasmids encoding either the GC1008 heavy chain or light chain were used as a template in PCR-based mutagenesis reactions. Mutations to the encoding DNA were made to create 155 single amino acid substitutions of the encoded heavy chain amino acid sequence and one single amino acid substitution of the encoded light chain amino acid sequence. A QuikChange® Lightning Site-Directed Mutagenesis kit (Agilent Technologies, Santa Clara Calif.) was used according to the manufacturer's instructions to create DNA mutations using a set of forward and reverse primers, either designed for a specific amino acid or for all 20 amino acids with a degenerate codon (NNK). After sequencing confirmation, identified mutant DNA was paired with a wild-type light or heavy chain DNA for transfection into an Expi293F™ host cell suspension (Life Techonologies Corp., Grand Island, N.Y.). At 4 days post-transfection, conditioned media (1 mL) was harvested and purified using a 1 mL Protein A PhyTip® column (PhyNexus, Inc., San Jose, Calif.) and a PureSpeed™ 12-channel pipette (Rainin Instrument LLC, Oakland, Calif.). Purified variant antibody samples were analyzed in duplicate on a Biacore® 3000 (GE Healthcare) at 50 nM concentrations, using the 100 RU level TGFβ1, 2, and 3 immobilized surfaces. The off-rate (kd) of the variants was divided by the kd of the wild-type control to obtain the fold change in the kd. […] A heat map was generated to visualize the results. Variants that completely lost affinity for TGFβ were shown in red without numbers.

[11] = molecular target: T3, human TGFβ1; assay: Biacore off-rate vs wt GC1008
Description: as §3

[12] = molecular target: T2, human TGFβ2; assay: Biacore off-rate vs wt GC1008
Description: as §3

Binder | binding result [1] | binding result [2] | binding result [3] | kd var/kd wt [4] | kd var/kd wt [5] | kd var/kd wt [6] | KD mutant/KD wt [7] | KD mutant/KD wt [8] | KD mutant/KD wt [9] | kd mutant/kd wt [10] | kd mutant/kd wt [11] | kd mutant/kd wt [12]
I52A (antibody, V domains shown, GC1008 IgG4 variant) VH: QVQLVQSGAEVKKPGSSVKVSCKASGYTFSSNVISWVRQAPGQGLEWMGGVAPIVDIANYAQRFKGRVTITADESTSTTYMELSSLRSEDTAVYYCASTLGLVLDAMDYWGQGTLVTVSS VL: ETVLTQSPGTLSLSPGERATLSCRASQSLGSSYLAWYQQKPGQAPRLLIYGASSRAPGIPDRFSGSGSGTDFTLTISRLEPEDFAVYYCQQYADSPITFGQGTRLEIK | no binding (tested: 50 nM) | no binding (tested: 50 nM) | no binding (tested: 50 nM) | – | – | – | – | – | – | – | – | –
I52D (antibody, V domains shown, GC1008 IgG4 variant) VH: QVQLVQSGAEVKKPGSSVKVSCKASGYTFSSNVISWVRQAPGQGLEWMGGVDPIVDIANYAQRFKGRVTITADESTSTTYMELSSLRSEDTAVYYCASTLGLVLDAMDYWGQGTLVTVSS VL: ETVLTQSPGTLSLSPGERATLSCRASQSLGSSYLAWYQQKPGQAPRLLIYGASSRAPGIPDRFSGSGSGTDFTLTISRLEPEDFAVYYCQQYADSPITFGQGTRLEIK | no binding (tested: 50 nM) | no binding (tested: 50 nM) | no binding (tested: 50 nM) | – | – | – | – | – | – | – | – | –
S30E (antibody, V domains shown, GC1008 IgG4 variant) VH: QVQLVQSGAEVKKPGSSVKVSCKASGYTFESNVISWVRQAPGQGLEWMGGVIPIVDIANYAQRFKGRVTITADESTSTTYMELSSLRSEDTAVYYCASTLGLVLDAMDYWGQGTLVTVSS VL: ETVLTQSPGTLSLSPGERATLSCRASQSLGSSYLAWYQQKPGQAPRLLIYGASSRAPGIPDRFSGSGSGTDFTLTISRLEPEDFAVYYCQQYADSPITFGQGTRLEIK | – | – | – | 1.1 | 1.2 | 1.4 | 0.8 | 1.5 | 1.6 | 1.1 | 1.2 | 1.4
V55F (antibody, V domains shown, GC1008 IgG4 variant) VH: QVQLVQSGAEVKKPGSSVKVSCKASGYTFSSNVISWVRQAPGQGLEWMGGVIPIFDIANYAQRFKGRVTITADESTSTTYMELSSLRSEDTAVYYCASTLGLVLDAMDYWGQGTLVTVSS VL: ETVLTQSPGTLSLSPGERATLSCRASQSLGSSYLAWYQQKPGQAPRLLIYGASSRAPGIPDRFSGSGSGTDFTLTISRLEPEDFAVYYCQQYADSPITFGQGTRLEIK | – | – | – | 1.2 | 1.2 | 0.9 | 0.8 | 1 | 0.6 | 1.2 | 1.2 | 0.9
I52E (antibody, V domains shown, GC1008 IgG4 variant) VH: QVQLVQSGAEVKKPGSSVKVSCKASGYTFSSNVISWVRQAPGQGLEWMGGVEPIVDIANYAQRFKGRVTITADESTSTTYMELSSLRSEDTAVYYCASTLGLVLDAMDYWGQGTLVTVSS VL: ETVLTQSPGTLSLSPGERATLSCRASQSLGSSYLAWYQQKPGQAPRLLIYGASSRAPGIPDRFSGSGSGTDFTLTISRLEPEDFAVYYCQQYADSPITFGQGTRLEIK | no binding (tested: 50 nM) | no binding (tested: 50 nM) | no binding (tested: 50 nM) | – | – | – | – | – | – | – | – | –

Continued, values first:

binding result [1] | binding result [2] | binding result [3] | kd var/kd wt [4] | kd var/kd wt [5] | kd var/kd wt [6] | KD mutant/KD wt [7] | KD mutant/KD wt [8] | KD mutant/KD wt [9] | kd mutant/kd wt [10] | kd mutant/kd wt [11] | kd mutant/kd wt [12] | Binder
– | – | – | 1.4 | 1.5 | 1.4 | 1.1 | 1.2 | 1.3 | 1.4 | 1.5 | 1.4 | Y27H (antibody, V domains shown, GC1008 IgG4 variant) VH: QVQLVQSGAEVKKPGSSVKVSCKASGHTFSSNVISWVRQAPGQGLEWMGGVIPIVDIANYAQRFKGRVTITADESTSTTYMELSSLRSEDTAVYYCASTLGLVLDAMDYWGQGTLVTVSS VL: ETVLTQSPGTLSLSPGERATLSCRASQSLGSSYLAWYQQKPGQAPRLLIYGASSRAPGIPDRFSGSGSGTDFTLTISRLEPEDFAVYYCQQYADSPITFGQGTRLEIK
no binding (tested: 50 nM) | no binding (tested: 50 nM) | no binding (tested: 50 nM) | – | – | – | – | – | – | – | – | – | I52C (antibody, V domains shown, GC1008 IgG4 variant) VH: QVQLVQSGAEVKKPGSSVKVSCKASGYTFSSNVISWVRQAPGQGLEWMGGVCPIVDIANYAQRFKGRVTITADESTSTTYMELSSLRSEDTAVYYCASTLGLVLDAMDYWGQGTLVTVSS VL: ETVLTQSPGTLSLSPGERATLSCRASQSLGSSYLAWYQQKPGQAPRLLIYGASSRAPGIPDRFSGSGSGTDFTLTISRLEPEDFAVYYCQQYADSPITFGQGTRLEIK
– | – | – | 0.3 | 0.7 | 0.4 | 0.3 | 0.7 | 0.4 | 0.3 | 0.7 | 0.4 | S30W (antibody, V domains shown, GC1008 IgG4 variant) VH: QVQLVQSGAEVKKPGSSVKVSCKASGYTFWSNVISWVRQAPGQGLEWMGGVIPIVDIANYAQRFKGRVTITADESTSTTYMELSSLRSEDTAVYYCASTLGLVLDAMDYWGQGTLVTVSS VL: ETVLTQSPGTLSLSPGERATLSCRASQSLGSSYLAWYQQKPGQAPRLLIYGASSRAPGIPDRFSGSGSGTDFTLTISRLEPEDFAVYYCQQYADSPITFGQGTRLEIK
no binding (tested: 50 nM) | no binding (tested: 50 nM) | no binding (tested: 50 nM) | – | – | – | – | – | – | – | – | – | I52G (antibody, V domains shown, GC1008 IgG4 variant) VH: QVQLVQSGAEVKKPGSSVKVSCKASGYTFSSNVISWVRQAPGQGLEWMGGVGPIVDIANYAQRFKGRVTITADESTSTTYMELSSLRSEDTAVYYCASTLGLVLDAMDYWGQGTLVTVSS VL: ETVLTQSPGTLSLSPGERATLSCRASQSLGSSYLAWYQQKPGQAPRLLIYGASSRAPGIPDRFSGSGSGTDFTLTISRLEPEDFAVYYCQQYADSPITFGQGTRLEIK
– | – | – | 1.6 | 1.7 | 1.4 | 1.3 | 1.3 | 1.3 | 1.6 | 1.7 | 1.4 | S31W (antibody, V domains shown, GC1008 IgG4 variant) VH: QVQLVQSGAEVKKPGSSVKVSCKASGYTFSWNVISWVRQAPGQGLEWMGGVIPIVDIANYAQRFKGRVTITADESTSTTYMELSSLRSEDTAVYYCASTLGLVLDAMDYWGQGTLVTVSS VL: ETVLTQSPGTLSLSPGERATLSCRASQSLGSSYLAWYQQKPGQAPRLLIYGASSRAPGIPDRFSGSGSGTDFTLTISRLEPEDFAVYYCQQYADSPITFGQGTRLEIK
